The values below come from article PMC8488606, “The citron homology domain as a scaffold for Rho1 signaling” (Proceedings of the National Academy of Sciences of the …, 2021).

For assay [1], the target named is T1, Recombinant His6-Rom2 CNH (862-1194), citron homology domain of Aspergillus fumigatus Rom2 (Aspergillus fumigatus, UniProt Q4WUI2 862-1194, biotinylated using the EZLink NHS-Peg4-Biotin reagent (for BLI)).
T1 construct: Rom2 (guanine nucleotide exchange factor of Rho1), Aspergillus fumigatus, UniProt Q4WUI2, CNH domain construct residues 862-1194; Cloned into a noncleavable 6His version of pGEX6P1 with primers P23 and P24, then the C terminus was truncated with primers P19 and P20; The N-terminal end of the tag is read from the printed name 'His6-Rom2 CNH'; also called AfRom2 CNH; AfRom2CNH; source: E. coli BL21 …
T1 sequence (looked up): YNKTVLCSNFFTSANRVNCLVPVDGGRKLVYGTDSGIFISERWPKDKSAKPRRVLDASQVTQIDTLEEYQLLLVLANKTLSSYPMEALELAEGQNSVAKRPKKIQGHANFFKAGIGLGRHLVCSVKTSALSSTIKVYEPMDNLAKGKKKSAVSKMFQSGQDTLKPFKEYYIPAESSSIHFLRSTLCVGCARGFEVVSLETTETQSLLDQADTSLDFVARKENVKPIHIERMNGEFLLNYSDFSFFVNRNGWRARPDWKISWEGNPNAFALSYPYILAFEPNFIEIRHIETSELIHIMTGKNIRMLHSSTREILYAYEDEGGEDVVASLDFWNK
Put plainly: BLI; biotinylated AfRom2 CNH on super streptavidin (SSA) biosensors, apo AfRho1 (no nucleotide) in solution, Octet Htx; 25 mM Hepes, 150 mM NaCl, 0.5 mM TCEP pH 7.5; six-point series from 1 mM in threefold dilutions. The note with it: both partners purified. (BLI is a label-free optical method that tracks binding on a fibre tip over time.)

Assay [2] addresses T1, Recombinant His6-Rom2 CNH (862-1194), …. The experiment in a line: BLI; biotinylated AfRom2 CNH on super streptavidin (SSA) biosensors, AfRho1 with GDP or GTPγS (saturating nucleotide) in solution, Octet Red 384; 25 mM Hepes, 150 mM NaCl, 0.5 mM TCEP pH 7.5; six-point series from 1 mM in threefold dilutions. The note with it: both partners purified.

B1: Recombinant AfRho1 (residues 1 to 181) with F25N mutation (enzyme)
chain: not shown
notes: Rho1 GTPase, Aspergillus fumigatus, residues 1 to 181, F25N introduced for protein stability; Expressed from pGEX6P1; GST removed with PreScission protease; Used without nucleotide, with GDP or with GTPγS in BLI; also called apo AfRho1; AfRho1-GDP; source: E. coli BL21 (non-DE3), purified (Glutathione-Sepharose, PreScission cleavage, Superdex 75)
For the molecule B1, the Kd stood at 80 µM in assay [1] and 200 µM in assay [2].

A word on the Kd: it is the equilibrium constant for the complex coming apart.
